{"source": "the supplement of paper PMC9170038", "system": "MS2 coat protein", "experiment": "apparent KD of MS2 coat protein; designed switch direction (-1 OFF switch, 1 ON switch): 1; higher = weaker reporter binding", "in_short": "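Designed RNA switches with common flanks were transcribed on Illumina chips by stalled E. coli RNA polymerase and titrated with SNAP-549-labelled MS2 coat protein, from 0.7 or 1.5 nM doubling to 3 µM, in Tris-HCl pH 7.5 buffer with KCl, MgCl2, BSA, DTT, tRNA and Tween-20. Steps lasted 0.8–1.5 h (lowest) to 10–20 min (highest). Titrations ran without input, with 200 uM small-molecule ligand, or with an oligonucleotide input. Normalised cluster fluorescence was curve-fitted, and apparent KD is the per-design median over clusters.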", "key": {"[1]": {"conditions": "input ligand: microRNA oligo, concentration not stated"}, "[2]": {"conditions": "Eterna round: R95, input ligand: FMN 200 uM"}, "[3]": {"conditions": "Eterna round: R95, input ligand: microRNA oligo, concentration not stated"}, "[4]": {"conditions": "Eterna round: R95, input ligand: none"}}, "data": [{"sequence": "AUUGGGUAACGAGGAUAUCGUUUUUGUUUUCUUCGAGAAGGCGUUAUUGUUUAUUUCUAUUGUUACAUGAGGAUCACCCAUGUU [JR_SSNG1_Sub055] (Eterna round: R96, puzzle: Same State NG 1)", "values": [{"measurement": "apparent KD of MS2 coat protein", "setting": "input ligand: FMN 200 uM", "result": 15, "unit": "nM"}, {"measurement": "apparent KD of MS2 coat protein", "setting": "[1]", "result": 13.8, "unit": "nM"}, {"measurement": "apparent KD of MS2 coat protein", "setting": "input ligand: none", "result": 21.5, "unit": "nM"}]}, {"sequence": "UGGCUCAGACGAGGAUAUGAUCAUGGCGCUUCGGCGCAUACAUGAGGAUCACCCAUGUAGGGUGAUCAGAAGGCGUCUGAGCCA [SSNG2/8-A2] (Eterna round: R96, puzzle: Same State NG 2)", "values": [{"measurement": "apparent KD of MS2 coat protein", "setting": "input ligand: FMN 200 uM", "result": 55.8, "unit": "nM"}, {"measurement": "apparent KD of MS2 coat protein", "setting": "[1]", "result": 413, "unit": "nM"}, {"measurement": "apparent KD of MS2 coat protein", "setting": "input ligand: none", "result": 460, "unit": "nM"}]}, {"sequence": "GCGAAACAUGAGGAUCACCCAUGUAUGGCGGGCACAGGAUAUCGUGGUUCGCUCAUACUACGAGAAGGGUGAAAAG [Orqu] (puzzle: Same State 1)", "values": [{"measurement": "apparent KD of MS2 coat protein", "setting": "[2]", "result": 24.1, "unit": "nM"}, {"measurement": "apparent KD of MS2 coat protein", "setting": "[3]", "result": 18.4, "unit": "nM"}, {"measurement": "apparent KD of MS2 coat protein", "setting": "[4]", "result": 16.9, "unit": "nM"}]}, {"sequence": "AGAUCAUGACGAGGAUAUCCGACAUGAGGAUCACCCAUGUAUGUCGGAGGACGAAUACGUCCAAAGGAGAAGGCGUCGUGGUCA [Mat - Same State NG 2 - JL mod - D38] (Eterna round: R96, puzzle: Same State NG 2)", "values": [{"measurement": "apparent KD of MS2 coat protein", "setting": "input ligand: FMN 200 uM", "result": 25.2, "unit": "nM"}, {"measurement": "apparent KD of MS2 coat protein", "setting": "[1]", "result": 62.9, "unit": "nM"}, {"measurement": "apparent KD of MS2 coat protein", "setting": "input ligand: none", "result": 85.4, "unit": "nM"}]}, {"sequence": "GGUACCAUCACAGGAUAUGCUAUCCUUUGGGUAGCAGAAGGGUGAUACAUGAGGAUCACCCAUGUGGUGCCAGGGCGUGAGCCC [JL SSNG1 1.91] (Eterna round: R96, puzzle: Same State NG 1)", "values": [{"measurement": "apparent KD of MS2 coat protein", "setting": "input ligand: FMN 200 uM", "result": 901, "unit": "nM"}, {"measurement": "apparent KD of MS2 coat protein", "setting": "[1]", "result": 44.5, "unit": "nM"}, {"measurement": "apparent KD of MS2 coat protein", "setting": "input ligand: none", "result": 331, "unit": "nM"}]}, {"sequence": "AGUCCAGCCUGAGCUGGACAAAAGCAUGUACAUGAGGAUCACCCAUGUCAUGUACAGGCUUUUUGCUCGUCUUAAAA [Zipper 46 - 8] (puzzle: Sensor for hsa-mir-208a)", "values": [{"measurement": "apparent KD of MS2 coat protein", "setting": "[2]", "result": 213, "unit": "nM"}, {"measurement": "apparent KD of MS2 coat protein", "setting": "[3]", "result": 16.1, "unit": "nM"}, {"measurement": "apparent KD of MS2 coat protein", "setting": "[4]", "result": 300, "unit": "nM"}]}, {"sequence": "UGAACCGUCACAGGAUAUCAUGCGAAAAUUGCGUGAGAAGGGUGGAUGUUGUGCUCAAAGUUAUACAUGAGGAUCACCCAUGUU [SameState NG1 #45] (Eterna round: R96, puzzle: Same State NG 1)", "values": [{"measurement": "apparent KD of MS2 coat protein", "setting": "input ligand: FMN 200 uM", "result": 133, "unit": "nM"}, {"measurement": "apparent KD of MS2 coat protein", "setting": "[1]", "result": 188, "unit": "nM"}, {"measurement": "apparent KD of MS2 coat protein", "setting": "input ligand: none", "result": 285, "unit": "nM"}]}, {"sequence": "GAGAGAGGGCGAGGAUAUUCGGUGAUAAUGAUGGAAGAAGGCGCUGACAUGAGGAUCACCCAUGUGGGAAUAAUCCAGAGAGAG [Parity 15 - Jieux - Same State NG 1] (Eterna round: R96, puzzle: Same State NG 1)", "values": [{"measurement": "apparent KD of MS2 coat protein", "setting": "input ligand: FMN 200 uM", "result": 494, "unit": "nM"}, {"measurement": "apparent KD of MS2 coat protein", "setting": "[1]", "result": 130, "unit": "nM"}, {"measurement": "apparent KD of MS2 coat protein", "setting": "input ligand: none", "result": 237, "unit": "nM"}]}, {"sequence": "UGUACCUUCACAGGAUAUCAUGCGAAAAUUGCGUGAGAAGGGUGAAUACGGUGUUCAUUGUUGCACAUGAGGAUCACCCAUGUA [SameState NG1 #55] (Eterna round: R96, puzzle: Same State NG 1)", "values": [{"measurement": "apparent KD of MS2 coat protein", "setting": "input ligand: FMN 200 uM", "result": 269, "unit": "nM"}, {"measurement": "apparent KD of MS2 coat protein", "setting": "[1]", "result": 74.9, "unit": "nM"}, {"measurement": "apparent KD of MS2 coat protein", "setting": "input ligand: none", "result": 259, "unit": "nM"}]}, {"sequence": "CUAAAACAUGAGGAUCACCCAUGUCAACAAAGUCGAGGAUAUGGGCAAAUAAAAUAAGAACCAGAAGGCGAAUAAA [salish99_SS1_r3_015] (puzzle: Same State 1)", "values": [{"measurement": "apparent KD of MS2 coat protein", "setting": "[2]", "result": 42.8, "unit": "nM"}, {"measurement": "apparent KD of MS2 coat protein", "setting": "[3]", "result": 518, "unit": "nM"}, {"measurement": "apparent KD of MS2 coat protein", "setting": "[4]", "result": 518, "unit": "nM"}]}, {"sequence": "UGUAAACAUGAGGAUCACCCAUGUAAUAAUAUGGGAGGAUAUGGGAAUUAAUUAAUUAAACCAGAAGGCCUAAUGU [Mat - Same State 1 - D88] (puzzle: Same State 1)", "values": [{"measurement": "apparent KD of MS2 coat protein", "setting": "[2]", "result": 30.9, "unit": "nM"}, {"measurement": "apparent KD of MS2 coat protein", "setting": "[3]", "result": 388, "unit": "nM"}, {"measurement": "apparent KD of MS2 coat protein", "setting": "[4]", "result": 280, "unit": "nM"}]}, {"sequence": "GGAGCCGGCACUGAGGAUAUUCAUAUUAAAACAUGAGGAUCACCCAUGUAGGCCAGAAGGCCUUGGGAGAAGGCAGGUCGACUCG [Diqureveri] (Eterna round: R96, puzzle: Same State 2)", "values": [{"measurement": "apparent KD of MS2 coat protein", "setting": "input ligand: FMN 200 uM", "result": 24.5, "unit": "nM"}, {"measurement": "apparent KD of MS2 coat protein", "setting": "[1]", "result": 159, "unit": "nM"}, {"measurement": "apparent KD of MS2 coat protein", "setting": "input ligand: none", "result": 209, "unit": "nM"}]}, {"sequence": "UUGAAGAAUUAAGGAUAUCGAGUCGUCUAAUUAAACAUGAGGAUCACCCAUGUGGGUUGCGGUAUCGAGAAGGUAAAUUACUAA [JL JR Sub099 mod 1] (Eterna round: R96, puzzle: Same State NG 2)", "values": [{"measurement": "apparent KD of MS2 coat protein", "setting": "input ligand: FMN 200 uM", "result": 14.3, "unit": "nM"}, {"measurement": "apparent KD of MS2 coat protein", "setting": "[1]", "result": 20.6, "unit": "nM"}, {"measurement": "apparent KD of MS2 coat protein", "setting": "input ligand: none", "result": 32.2, "unit": "nM"}]}, {"sequence": "ACAAGCUUUUUGCUCCUCUUAUGUCCGAAACAUGAGGAUCACCCAUGUAUAGAUUGUGUGUUGUUGUAGAUGCAAGA [JR_SHM208A_Sub061] (puzzle: Sensor for hsa-mir-208a)", "values": [{"measurement": "apparent KD of MS2 coat protein", "setting": "[2]", "result": 69.3, "unit": "nM"}, {"measurement": "apparent KD of MS2 coat protein", "setting": "[3]", "result": 72, "unit": "nM"}, {"measurement": "apparent KD of MS2 coat protein", "setting": "[4]", "result": 71.8, "unit": "nM"}]}, {"sequence": "UUUCUCAUGUAAGGAUAUGCAGCCGUUUCGGCUGCAGAAGGUACUAUAAUACAUGAGGAUCACCCAUGUCUCUAUUAUUUAGUU [JL SSNG1 1.44] (Eterna round: R96, puzzle: Same State NG 1)", "values": [{"measurement": "apparent KD of MS2 coat protein", "setting": "input ligand: FMN 200 uM", "result": 84.7, "unit": "nM"}, {"measurement": "apparent KD of MS2 coat protein", "setting": "[1]", "result": 39.9, "unit": "nM"}, {"measurement": "apparent KD of MS2 coat protein", "setting": "input ligand: none", "result": 47.1, "unit": "nM"}]}]}
